Changes are numbered by the printed parent chain.
What was measured:
Assay in all cases: SPR, KD relative to WT C2;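 further: biacore SPR at 37 °C, anti-C2 mAbs captured via immobilised goat anti-human IgG, C2 alanine or serine surface mutants as analytes, 1:1 model fitted, double-referenced sensograms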
human C2 D454A = biological target: T1, human C2 D454A (human, UniProt P06681 21-752)
T1 sequence: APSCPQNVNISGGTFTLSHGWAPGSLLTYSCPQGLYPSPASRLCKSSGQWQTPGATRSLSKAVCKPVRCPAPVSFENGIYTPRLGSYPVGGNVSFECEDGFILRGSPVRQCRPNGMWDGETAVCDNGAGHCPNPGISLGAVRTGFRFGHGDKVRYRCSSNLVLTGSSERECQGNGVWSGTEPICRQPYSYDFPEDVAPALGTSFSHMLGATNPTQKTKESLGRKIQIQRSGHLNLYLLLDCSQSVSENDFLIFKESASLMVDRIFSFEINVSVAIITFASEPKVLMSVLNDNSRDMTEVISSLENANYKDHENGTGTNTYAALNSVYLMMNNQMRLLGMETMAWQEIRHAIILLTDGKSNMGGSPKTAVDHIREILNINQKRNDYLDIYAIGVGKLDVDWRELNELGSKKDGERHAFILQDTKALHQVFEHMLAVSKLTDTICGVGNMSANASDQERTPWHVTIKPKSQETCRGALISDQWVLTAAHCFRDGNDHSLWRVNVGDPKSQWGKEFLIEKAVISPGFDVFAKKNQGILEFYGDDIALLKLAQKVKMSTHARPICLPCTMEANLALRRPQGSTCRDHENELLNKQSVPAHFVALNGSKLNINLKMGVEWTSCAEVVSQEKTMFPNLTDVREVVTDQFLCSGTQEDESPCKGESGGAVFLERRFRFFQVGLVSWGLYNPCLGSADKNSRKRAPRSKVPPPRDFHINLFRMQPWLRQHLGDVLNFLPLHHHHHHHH
Procedure: (§1) Surface plasmon resonance (SPR, Biacore) was used for all binding affinity analyses. In brief, goat anti-human IgG was directly immobilised onto the carboxymethyl dextran surface of CM5 sensorchips to approximately 12,000 RU using standard NHS/EDC chemistry at pH 5. The immobilised antibody surface was pre-conditioned with ten injections of polyclonal human IgG (Privigen 60 s) prepared at 1 μg/mL. Ligands (anti-C2 mAbs) were captured at the beginning of each cycle as described below. An adjacent spot or flow cell in which only Polyclonal IgG was capture was used as a reference surface. The goat anti-human IgG Fc antibody surface was regenerate in 100 mM H3PO4, injected for 45 seconds at the end of each cycle. Experiments were performed at 37° C. and the flow rate of each experiment was kept constant at 30 μL/min.
(§2) Sensogram data was double-referenced against a reference anti-IgG surface (i.e. minus anti-C2 mAb) and blank buffer injections obtained within each experiment. The binding data was fit to 1:1 (kinetic or steady-state) model using local Rmax and null refraction index (RI=0) when appropriate. Buffers and solutions were filtered (0.22 μm) prior to use.

human C2 F270A = biological target: T2, human C2 F270A (human, UniProt P06681 21-752)
T2 sequence: T1 sequence with F250A, A434D
Procedure: as §1, §2

human C2 E532A = biological target: T3, human C2 E532A (human, UniProt P06681 21-752)
T3 sequence: T1 sequence with A434D, E512A
Procedure: as §1, §2

human C2 E686A = biological target: T4, human C2 E686A (human, UniProt P06681 21-752)
T4 sequence: T1 sequence with A434D, E666A
Procedure: as §1, §2

B1: RF16-226 (antibody, human IgG4 S228P, lambda)
heavy: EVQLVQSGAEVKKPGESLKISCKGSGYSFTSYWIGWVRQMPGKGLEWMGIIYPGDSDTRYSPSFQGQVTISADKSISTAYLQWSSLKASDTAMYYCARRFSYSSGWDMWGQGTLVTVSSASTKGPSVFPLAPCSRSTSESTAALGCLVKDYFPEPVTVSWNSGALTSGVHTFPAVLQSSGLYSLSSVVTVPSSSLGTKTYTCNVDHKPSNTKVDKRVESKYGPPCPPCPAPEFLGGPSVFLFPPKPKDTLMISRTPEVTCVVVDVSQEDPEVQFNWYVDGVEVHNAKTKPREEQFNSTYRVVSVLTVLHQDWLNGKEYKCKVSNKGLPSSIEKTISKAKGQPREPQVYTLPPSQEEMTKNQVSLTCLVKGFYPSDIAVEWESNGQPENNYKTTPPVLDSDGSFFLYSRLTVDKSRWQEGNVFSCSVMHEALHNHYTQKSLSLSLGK
light: SYELTQPPSVSVSPGQTARITCSGDALTSKYVAWYQQKSGLAPLLVIYEDTRRPSGIPAKFSGSSSGSVATLTISGAHGDDEADYYCYSTDASGHQRVFGGGTKLTVLSQPKAAPSVTLFPPSSEELQANKATLVCLISDFYPGAVTVAWKADGSPVKAGVETTKPSKQSNNKYAASSYLSLTPEQWKSHRSYSCQVTHEGSTVEKTVAPTECS
notes: pH-dependent anti-C2 antibody from a phage display library; also called WT
Fold diff (human C2 D454A): 25 fold
Fold diff (human C2 F270A): 10 fold
Fold diff (human C2 E532A): 2 fold
Fold diff (human C2 E686A): 5 fold
